This assay concerns the target C5b6 (UniProt P13671). Kind of assay: BLI; as a1, but 100nM C7 pre-incubated with anti-C7 mAb TPP1653 (200nM or 2nM) before dipping the C5b6 sensors, then C8 and C9. In general terms: Biolayer interferometry detects binding as a change in optical thickness at a sensor tip.

Consider “human complement C7 (from UniProt P10643 23-843) (natural protein)”, for which the binding response, percent of max response in controls (with 200nM TPP1653) (% of max response in controls) stood at 60.

(Values after publication PMC9486540.)
